JP2000515494A
Several values for one entry are separate records, joined by “and”; a condition that tells them apart may be missing. Equal entries are not always repeated.

Columns and labels:
[1] = molecular target: hIL-5/IL-5レセプターα鎖複合体 (hIL-5 captured on IL-5RαFc) (human) (UniProt P05113); assay: ELISA (europium fluorescence), IL-5RαFc on protein A + IL-5, mAb added; concentration 2 ng/ml
[2] = molecular target: hIL-5/IL-5レセプターα鎖複合体 (hIL-5 captured on IL-5RαFc) (human) (UniProt P05113); assay: ELISA (europium fluorescence), IL-5RαFc on protein A + IL-5, mAb added; concentration 0 ng/ml
[3] = molecular target: hIL-5/IL-5レセプターα鎖複合体 (hIL-5 captured on IL-5RαFc) (human) (UniProt P05113); assay: ELISA (europium fluorescence), IL-5RαFc on protein A + IL-5, mAb added; concentration 8 ng/ml
[4] = molecular target: 組換えヒトIL-5 (recombinant human interleukin-5) (human) (UniProt P05113); assay: optical biosensor (BIAcore)
[5] = molecular target: 組換えヒトIL-5 (recombinant human interleukin-5) (human) (UniProt P05113); assay: cell-based or functional assay
[6] = molecular target: hIL-5/IL-5レセプターα鎖複合体 (hIL-5 captured on IL-5RαFc) (human) (UniProt P05113); assay: ELISA (europium fluorescence), IL-5RαFc on protein A + IL-5, mAb added; concentration 32 ng/ml
[7] = molecular target: 組換えヒトIL-5 (recombinant human interleukin-5) (human) (UniProt P05113); assay: optical biosensor
[8] = molecular target: 組換えヒトIL-5 (recombinant human interleukin-5) (human) (UniProt P05113); assay: inhibition of 125I-IL-5 binding to IL-5Rα (Drosophila membranes), dose dependent

B1: ネズミモノクローナル抗体2B6 (antibody, from another filing, V domains shown)
VH: QVQLKESGPGLVAPSQSLSITCTVSGFSLTSYSVHWVRQPPGKGLEWLGVIWASGGTDYNSALMSRLSISKDNSKSQVFLKLNSLQTDDTAMYYCARDPPSSLLRLDYWGQGTTLTVSS
VL: DIVMTQSPSSLSVSAGEKVTMSCKSSQSLLNSGNQKNYLAWYQQKPGQPPKLLIYGASTRESGVPDRFTGSGSGTDFTLSISSVQAEDLAVYYCQNVHSFPFTFGSGTELEIK
For B1, the 結合(個数) [1] was 2940 個数, the 結合(個数) [2] was 2770 個数 and the 結合(個数) [3] was 3200 個数. The Kd [4] was 0.022 nM and < 0.035 nM, the ネズミB13の増殖の阻害 (B13 proliferation assay) [5] was > 70% and the 結合(個数) [6] was 4980 個数.

B2: ネズミモノクローナル抗体2E3 (antibody, from another filing, mouse IgG2a, V domains shown)
VH: PGLVAPSQSLSITCTVSGFSLTSYSVHWVRQPPGKGLEWLGVIWASGGTDYNSALMSRLSISKDNSKSQVFLKLNSLQTDDAAMYYCARDPPFSLLRLDFWGQGTTLTVSS
VL: SSLSVSAGEKVTMSCKSSQSLLNSGNQKNYLAWYQQKPGQPPKLLIYGASTRESGVPDRFTGSGSGTDFTLTISSVQAEDLAVYYCQNDHSFPFTFGSGTELEIK
For B2, the Kd [4] was 0.02 nM and < 0.035 nM and the ネズミB13の増殖の阻害 (B13 proliferation assay) [5] was > 70%.

B3: ネズミモノクローナル抗体2F2 (antibody, from another filing, V domains shown)
VH: PGLVAPSQSLSITCTVSGFSLTSYSVHWVRQPPGKGLEWLGVIWASGGTDYNSALMSRLSISKDNSKSQVFLKLNSLRTDDTAMYYCARDPPSSLLRLDYWGQGTTLTVSS
VL: SSLSVSAGEKVTMSCKSSQSLLNSGNQKNYLAWYQQKPGQPPKLLIYGASTRESGVPDRFTGSGSGTDFTLTISSVQAEDLAVYYCQNDHSFPFTFGSGTELEIK
For B3, the ネズミB13の増殖の阻害 (B13 proliferation assay) [5] was > 70%.

B4: mAb 2B6から由来のFab (recombinant 2B6 Fab, hexa-His) (Fab, from another filing, V domains shown)
VH: QVQLKESGPGLVAPSQSLSITCTVSGFSLTSYSVHWVRQPPGKGLEWLGVIWASGGTDYNSALMSRLSISKDNSKSQVFLKLNSLQTDDTAMYYCARDPPSSLLRLDYWGQGTTLTVSS
VL: DIVMTQSPSSLSVSAGEKVTMSCKSSQSLLNSGNQKNYLAWYQQKPGQPPKLLIYGASTRESGVPDRFTGSGSGTDFTLSISSVQAEDLAVYYCQNVHSFPFTFGSGTELEIK
With B4 the Kd [7] was 0.09 nM and the IC50 [8] was 7.5 µg/mL.
